Measurements: patent publication US11267875B2, “Humanized anti-DKK2 antibody and uses thereof” (YALE UNIVERSITY, priority 2015, dated 2022)

B1: DKK2: recombinant DKK2 protein added to NK-92MI cells (protein)
chain: KLNSIKSSLGGETPGQAANRSAGMYQGLAFGGSKKGKNLGQAYPCSSDKECEVGRYCHSPHQGSSACMVCRRKKKRCHRDGMCCPSTRCNNGICIPVTESILTPHIPALDGTRHRDRNHGHYSNHDLGWQNLGRPHTKMSHIKGHEGDPCLRSSDCIEGFCCARHFWTKICKPVLHQGEVCTKQRKKGSHGLEIFQRCDCAKGLSCKVWKDATYSSKARLHVCQKI
B2: Wnt5a: recombinant Wnt5a protein added to NK-92MI cells (protein, UniProt P41221 62-380, looked up)
Protein Wnt-5a: IIGAQPLCSQLAGLSQGQKKLCHLYQDHMQYIGEGAKTGIKECQYQFRHRRWNCSTVDNTSVFGRVMQIGSRETAFTYAVSAAGVVNAMSRACREGELSTCGCSRAARPKDLPRDWLWGGCGDNIDYGYRFAKEFVDARERERIHAKGSYESARILMNLHNNEAGRRTVYNLADVACKCHGVSGSCSLKTCWLQLADFRKVGDALKEKYDSAAAMRLNSRGKLVQVNSRFNSPTTQDLVYIDPSPDYCVRNESTGSLGTQGRLCNKTSEGMDGCELMCCGRGYDQFKTVQTERCHCKFHWCCYVKCKKCTEIVDQFVCK

Tested on: NK-92MI cells
Test: Granzyme B expression in human NK cell line NK92 by flow cytometry
Format: cell-based
Conditions: recombinant proteins 200 ng/ml, 24 hours
Procedure: Recombinant Wnt5a and DKK2 (200 ng/ml) were added to NK-92MI cells for 24 hours and Granzyme B contents were analyzed by flow cytometry.
Human NK cell line NK-92 and primary mouse NK cells from spleens and MC38-grafted tumors were tested for their expression of Granzyme and cytotoxic activity in the presence or absence of recombinant proteins of DKK2, Wnt3a, Wnt5a and DKK1, and in the presence or absence of Wnt inhibitors (including LGK-974) and GSK inhibitors (including CHIR 99021). In this manner, the regulation of NK cell activation by DKK2 and Wnt was assessed.

| Molecule | Granzyme B expression |
| --- | --- |
| B1 | inhibited Granzyme B expression |
| B2 | inhibited Granzyme B expression |
